One may read the Kd as the equilibrium constant for the complex coming apart.

No end group written: not given here. Alexa Fluor 488 = Alexa Fluor 488 fluorescent dye tag

For the assay, the target named is T1, recombinant eNOS oxygenase domain.
T1 chain: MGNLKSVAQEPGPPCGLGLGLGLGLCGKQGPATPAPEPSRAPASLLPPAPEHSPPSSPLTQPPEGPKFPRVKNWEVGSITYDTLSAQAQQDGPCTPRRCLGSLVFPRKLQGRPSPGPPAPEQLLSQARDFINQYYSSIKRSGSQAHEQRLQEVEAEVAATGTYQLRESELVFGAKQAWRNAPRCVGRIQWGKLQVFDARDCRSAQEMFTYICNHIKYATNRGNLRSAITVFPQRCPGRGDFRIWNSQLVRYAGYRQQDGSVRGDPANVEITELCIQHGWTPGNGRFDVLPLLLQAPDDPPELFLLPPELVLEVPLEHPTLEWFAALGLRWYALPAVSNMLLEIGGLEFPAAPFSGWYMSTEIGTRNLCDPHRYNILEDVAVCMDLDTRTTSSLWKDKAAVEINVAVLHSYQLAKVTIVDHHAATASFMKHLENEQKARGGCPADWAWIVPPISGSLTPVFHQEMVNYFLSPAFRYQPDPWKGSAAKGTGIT
Nature of the assay: fluorescence polarisation; 1 μM recombinant oxygenase domain of eNOS incubated with peptide labelled with Alexa Fluor 488 at the C-terminus; SpectraMax M5 plate reader; triplicate measurements per concentration. The note with it: both partners purified. In general terms: In fluorescence polarisation assays a small probe gives low polarisation when free and higher when bound to something large.

On to LSFPTTKTYF-{Alexa Fluor 488} (source: synthetic peptide (AnaSpec)) [alpha globin mimetic peptide (alpha globin binding sequence LSFPTTKTYF)], for which the Kd amounted to 16.8 nM.

Source of the values: article PMC9613979, “Endothelial alpha globin is a nitrite reductase” (Nature Communications, 2022).
